Data taken from patent publication US20050026839A1 (GENERAL HOSPITAL, published 2005).
Read-outs that look alike come from different tables or passages of the source. Square brackets hold non-standard residues; d marks the D form. Ends that are not written are not given here. hArg = N=C(N)NCCCC[C@H](N)C(=O)O; Aib = CC(C)(N)C(=O)O

B1: [Aib^13,M]PTH(1-14) (peptide)
peptide: AVAEIQLMHQ[hArg]A[Aib]W-NH2
modifications: N-terminus assumed
SMILES: CC[C@H](C)[C@H](NC(=O)[C@H](CCC(=O)O)NC(=O)[C@H](C)NC(=O)[C@@H](NC(=O)[C@H](C)N)C(C)C)C(=O)N[C@@H](CCC(N)=O)C(=O)N[C@@H](CC(C)C)C(=O)N[C@@H](CCSC)C(=O)N[C@@H](Cc1c[nH]cn1)C(=O)N[C@@H](CCC(N)=O)C(=O)N[C@@H](CCCCNC(=N)N)C(=O)N[C@@H](C)C(=O)NC(C)(C)C(=O)N[C@@H](Cc1c[nH]c2ccccc12)C(N)=O
notes: Aib scan of [M]PTH(1-14); also called 634 Aib-13
B2: [Aib^1,M]PTH(1-14) (peptide)
peptide: [Aib]VAEIQLMHQ[hArg]AKW-NH2
modifications: N-terminus assumed
SMILES: CC[C@H](C)[C@H](NC(=O)[C@H](CCC(=O)O)NC(=O)[C@H](C)NC(=O)[C@@H](NC(=O)C(C)(C)N)C(C)C)C(=O)N[C@@H](CCC(N)=O)C(=O)N[C@@H](CC(C)C)C(=O)N[C@@H](CCSC)C(=O)N[C@@H](Cc1c[nH]cn1)C(=O)N[C@@H](CCC(N)=O)C(=O)N[C@@H](CCCCNC(=N)N)C(=O)N[C@@H](C)C(=O)N[C@@H](CCCCN)C(=O)N[C@@H](Cc1c[nH]c2ccccc12)C(N)=O
notes: also called 622 Aib-1
B3: [Aib^12,M]PTH(1-14) (peptide)
peptide: AVAEIQLMHQ[hArg][Aib]KW-NH2
modifications: N-terminus assumed
SMILES: CC[C@H](C)[C@H](NC(=O)[C@H](CCC(=O)O)NC(=O)[C@H](C)NC(=O)[C@@H](NC(=O)[C@H](C)N)C(C)C)C(=O)N[C@@H](CCC(N)=O)C(=O)N[C@@H](CC(C)C)C(=O)N[C@@H](CCSC)C(=O)N[C@@H](Cc1c[nH]cn1)C(=O)N[C@@H](CCC(N)=O)C(=O)N[C@@H](CCCCNC(=N)N)C(=O)NC(C)(C)C(=O)N[C@@H](CCCCN)C(=O)N[C@@H](Cc1c[nH]c2ccccc12)C(N)=O
notes: Aib scan of [M]PTH(1-14); Aib replaces the Ala^12 of [M]; also called 633 Aib-12
B4: [Aib^1,3,M]PTH(1-11) (peptide)
peptide: [Aib]V[Aib]EIQLMHQ[hArg]-NH2
modifications: N-terminus assumed
SMILES: CC[C@H](C)[C@H](NC(=O)[C@H](CCC(=O)O)NC(=O)C(C)(C)NC(=O)[C@@H](NC(=O)C(C)(C)N)C(C)C)C(=O)N[C@@H](CCC(N)=O)C(=O)N[C@@H](CC(C)C)C(=O)N[C@@H](CCSC)C(=O)N[C@@H](Cc1c[nH]cn1)C(=O)N[C@@H](CCC(N)=O)C(=O)N[C@@H](CCCCNC(=N)N)C(N)=O
notes: also called 682 [Aib^1,3, M]PTH (1-11); [Aib^1,3,Gln^10,Har^11]PTH(1-11)
B5: [Aib^14,M]PTH(1-14) (peptide)
peptide: AVAEIQLMHQ[hArg]AK[Aib]-NH2
modifications: N-terminus assumed
SMILES: CC[C@H](C)[C@H](NC(=O)[C@H](CCC(=O)O)NC(=O)[C@H](C)NC(=O)[C@@H](NC(=O)[C@H](C)N)C(C)C)C(=O)N[C@@H](CCC(N)=O)C(=O)N[C@@H](CC(C)C)C(=O)N[C@@H](CCSC)C(=O)N[C@@H](Cc1c[nH]cn1)C(=O)N[C@@H](CCC(N)=O)C(=O)N[C@@H](CCCCNC(=N)N)C(=O)N[C@@H](C)C(=O)N[C@@H](CCCCN)C(=O)NC(C)(C)C(N)=O
notes: Aib scan of [M]PTH(1-14); Aib replaces the Trp^14 of [M]; also called 635 Aib-14
B6: [Aib^3,M]PTH(1-14) (peptide)
peptide: AV[Aib]EIQLMHQ[hArg]AKW-NH2
modifications: N-terminus assumed
SMILES: CC[C@H](C)[C@H](NC(=O)[C@H](CCC(=O)O)NC(=O)C(C)(C)NC(=O)[C@@H](NC(=O)[C@H](C)N)C(C)C)C(=O)N[C@@H](CCC(N)=O)C(=O)N[C@@H](CC(C)C)C(=O)N[C@@H](CCSC)C(=O)N[C@@H](Cc1c[nH]cn1)C(=O)N[C@@H](CCC(N)=O)C(=O)N[C@@H](CCCCNC(=N)N)C(=O)N[C@@H](C)C(=O)N[C@@H](CCCCN)C(=O)N[C@@H](Cc1c[nH]c2ccccc12)C(N)=O
notes: also called 624 Aib-3

Legend:
[1] = target: wild-type human PTH/PTHrP receptor (hP1R-WT) (human) (UniProt Q03431); assay: cell-based or functional assay
[2] = target: T1, wild-type human PTH/PTHrP receptor (hP1R-WT) (human, UniProt Q03431 27-593); assay: competition binding, 125I-[M]PTH(1-21) tracer, HKRK-B28 cells, 4 h at 4 C
T1 construct: whole, on cells; HKRK-B28 cells express ~280,000 receptors per cell; also called PTH-1 receptor; PTH-1R
T1 sequence (looked up): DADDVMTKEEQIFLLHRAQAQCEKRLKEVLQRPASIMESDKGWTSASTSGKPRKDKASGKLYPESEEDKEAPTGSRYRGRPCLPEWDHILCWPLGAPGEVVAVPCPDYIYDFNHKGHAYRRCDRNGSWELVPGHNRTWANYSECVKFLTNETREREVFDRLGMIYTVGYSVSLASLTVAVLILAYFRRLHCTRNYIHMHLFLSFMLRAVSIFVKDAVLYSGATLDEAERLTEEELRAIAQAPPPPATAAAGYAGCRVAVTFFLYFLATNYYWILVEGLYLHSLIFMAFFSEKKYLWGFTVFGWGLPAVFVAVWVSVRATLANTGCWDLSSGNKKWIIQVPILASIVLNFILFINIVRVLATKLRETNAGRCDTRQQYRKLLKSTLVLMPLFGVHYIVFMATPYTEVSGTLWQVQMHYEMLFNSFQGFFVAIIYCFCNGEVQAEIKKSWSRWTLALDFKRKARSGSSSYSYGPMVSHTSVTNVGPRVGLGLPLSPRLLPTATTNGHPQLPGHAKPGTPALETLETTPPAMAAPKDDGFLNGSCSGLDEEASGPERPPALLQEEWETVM
Experimental: (§1) Competition Binding. Binding reactions were performed with HKRK-B28 cells or in COS-7 cells in 24-well plates. The cells were rinsed with 0.5 mL of binding buffer, and then treated successively with 100 μL binding buffer, 100 μL of binding buffer containing various amounts of unlabeled competitor ligand, and 100 μL of binding buffer containing ca. 100,000 cpm of ¹²⁵I-[M]PTH(1-21) or ¹²⁵I-[Aib^{1,3},M]PTH(1-21)} (ca. 26 fmol; final volume=300 μL). Incubations were 4 to 6 h at 4° C., at which time near equilibrium conditions were attained. Cells were then placed on ice, the binding medium was removed, and the monolayer was rinsed three times with 0.5 mL of cold binding buffer. The cells were subsequently lysed with 0.5 mL […] NaOH and counted for radioactivity. For each tracer and in each experiment, the non-specific binding was determined as the radioactivity that bound in the presence of the same unlabeled peptide at a concentration of 1 μM, and was ˜1% of total radioactivity added for each tracer. The maximum specific binding (B₀) was the total radioactivity bound in the absence of competing ligand, corrected for nonspecific binding, and for each tracer, ranged from 8% to 20% of the total radioactivity added. Nonlinear regression was used to calculate binding IC₅₀ values (see below). Scatchard transformations of homologous competition binding data derived from studies with 26 fmol of ¹²⁵I-[Aib^{1,3},M]PTH(1-21) were employed for estimations of apparent equilibrium dissociation constant (kDapps) and total number of ligand binding sites (Bₘₐₓ), assuming a single class of binding sites and equal affinities of the iodinated and non iodinated ligand.
Peptides PTH(1-34) ([Nle^{8,21}, Tyr³⁴]PTH(1-34)amide), [M]PTH(1-14) (M = Ala^{3,12}, Gln¹⁰, Har¹¹, Trp¹⁴), and [M]PTH(1-14 analogs, or C-terminally truncated derivatives thereof, containing α-aminoisobutyric acid (Aib) substitutions at the indicated positions were functionally evaluated in HKRK-B28 cells. “M” in [Aib^{1,3}, M]PTH(1-21) = Nle⁸, Gln¹⁰, Har¹¹, Ala¹², Trp¹⁴, Arg¹⁹ and Tyr²¹. The basal cAMP values (not subtracted) were 4.0 ± 0.1 pmole/well (n = 10). Peptides were based on the rat PTH sequence and were carboxy-amidated. Competition binding analyses were performed with ¹²⁵I-[M]PTH(1-21 )amide (Ala^{1,3}) as tracer for 4 h at 4° C. Data are means (±S.E.M.) Of the number of experiments indiated (n).

[3] = target: T1, wild-type human PTH/PTHrP receptor …; assay: competition binding, 125I-[M]PTH(1-21) tracer, HKRK-B28 cells
Experimental: as §1, with “Cells” for “Competition Binding. Binding reactions were performed with HKRK-B28 cells or in COS-7 cells in 24-well plates. The cells were rinsed with 0.5 mL of binding buffer, and then treated successively with 100 μL binding buffer, 100 μL of binding buffer containing various amounts of unlabeled competitor ligand, and 100 μL of binding buffer containing ca. 100,000 cpm of ¹²⁵I-[M]PTH(1-21) or ¹²⁵I-[Aib^{1,3},M]PTH(1-21)} (ca. 26 fmol; final volume=300 μL). Incubations were 4 to 6 h at 4° C., at which time near equilibrium conditions were attained. Cells”
Relative to the apparent binding affinity of [M]PTH(1-14), most of the Aib substitutions reduced affinity, in accordance with the corresponding effects on cAMP-signaling potency (Table 1).

[4] = target: T1, wild-type human PTH/PTHrP receptor …; assay: cell-based or functional assay
[5] = target: T1, wild-type human PTH/PTHrP receptor …; assay: cell-based or functional assay; remark: listed apart in the source
[6] = target: T1, wild-type human PTH/PTHrP receptor …; assay: cell-based or functional assay; remark: listed apart in the source
[7] = target: T2, truncated human P1R deleted for residues (24-181) (hP1R-delNt) (human, UniProt Q03431 182-593); assay: cell-based or functional assay
T2 sequence (looked up): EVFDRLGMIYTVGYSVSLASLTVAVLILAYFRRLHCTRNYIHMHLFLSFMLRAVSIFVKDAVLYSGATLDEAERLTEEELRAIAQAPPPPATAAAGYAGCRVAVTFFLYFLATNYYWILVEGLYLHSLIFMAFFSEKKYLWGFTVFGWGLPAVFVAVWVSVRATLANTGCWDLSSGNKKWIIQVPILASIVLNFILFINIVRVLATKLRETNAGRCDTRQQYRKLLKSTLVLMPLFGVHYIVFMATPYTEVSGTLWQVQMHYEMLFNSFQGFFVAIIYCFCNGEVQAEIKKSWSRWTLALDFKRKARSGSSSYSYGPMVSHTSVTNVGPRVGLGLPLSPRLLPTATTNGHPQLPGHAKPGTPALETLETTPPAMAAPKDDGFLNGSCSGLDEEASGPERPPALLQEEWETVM

[8] = target: T1, wild-type human PTH/PTHrP receptor …; assay: competition binding, 125I-[Aib1,3,M]PTH(1-21) tracer, COS-7 cells expressing hP1R-WT
Experimental: as §1

[9] = target: T2, truncated human P1R deleted for …; assay: competition binding, 125I-[Aib1,3,M]PTH(1-21) tracer, COS-7 cells expressing hP1R-delNt
Experimental: Stock solutions of EGTA/trypsin and antibiotics were from GIBCO; fetal bovine serum was from Hyclone Laboratories (Logan, Utah). […] All cells, in 24-well plates, were treated with fresh media and shifted to 33° C. for 12 to 24 h prior to assay.
as §1

| Molecule | IC50 [2] [nM] | fold reduction in affinity relative to [M]PTH(1-14) [3] [fold] | cAMP EC50 [4] [nM] | cAMP EMax(obs.) [4] [pmole/well] | other results |
| --- | --- | --- | --- | --- | --- |
| [Aib^11,M]PTH(1-14) (peptide) |  |  |  |  | cAMP EC50 [1]: 67000 nM; cAMP EMax(obs.) [1]: 96 pmole/well |
| B1 | 44000 | < 10 | 480 | 259 |  |
| B2 | 980 |  | 10 | 273 | fold improvement in affinity relative to [M]PTH(1-14) [3]: 13 fold; cAMP EC50 in SaOS-2 cells [5]: 22 nM; cAMP EMAX(obs.) in SaOS-2 cells [5]: 340 pmole/well |
| B3 | 15000 | < 10 | 440 | 263 |  |
| B4 | 970 |  | 4 | 243 | cAMP EC50 [6]: 2.1 nM; cAMP EMax(obs.) [6]: 190 pmole/well; cAMP EC50 [7]: 2 nM; cAMP EMax(obs.) [7]: 220 pmole/well; IC50 [8]: 16000 nM; IC50 [9]: 13000 nM |
| B5 | 79000 | < 10 | 350 | 273 |  |
| B6 | 1700 |  | 13 | 269 | fold improvement in affinity relative to [M]PTH(1-14) [3]: 8 fold; cAMP EC50 in SaOS-2 cells [5]: 42 nM; cAMP EMAX(obs.) in SaOS-2 cells [5]: 330 pmole/well |
